The values that follow come from US6919086B1, “Graminae pollen allergen mutants for specific immunotherapy, and production and use of the same” (Merck Patent Gesellschaft mit, priority 1997, dated 2005).

The target of assay [1] is IgE antibodies of the individual allergic patient serum II/3. The experiment in a line: EAST inhibition, individual serum II/3.
The target in assay [2] is IgE antibodies of the allergic patient serum pool We 6/97. The experiment in a line: EAST inhibition, serum pool We 6/97.
Assay [3] addresses IgE antibodies of the individual allergic patient serum II/17. Kind of assay: EAST inhibition, individual serum II/17.
The target of assay [4] is IgE antibodies of the individual allergic patient serum II/12. The experiment in a line: EAST inhibition, individual serum II/12.
Assay [5] has as its target IgE antibodies of the allergic patient serum pool Bor 18/100 (20 donors). Kind of assay: EAST inhibition, serum pool Bor 18/100.
Assay [6] deals with specific IgE on basophils from the blood of allergic patient. The experiment in a line: cell-based or functional assay.

For orientation: IC50 means the point on the concentration scale where inhibition reaches its midpoint. Read a high IC50 as lower potency.

B1: rPhl p 5b deletion mutant DM1 (deletion K50-P132, D49L) (protein)
chain: ADAGYAPATPAAAGAAAGKATTEEQKLIEDINVGFKAAVAAAASVPAALAGELQIIDKIDAAFKVAATAAATAPADDKFTVFEAAFNKAIKESTGGAYDTYKCIPSLEAAVKQAYAATVAAAPQVKYAVFEAALTKAITAMSEVQKVSQPATGAATVAAGAATTAAGAASGAATVAAGGYKV
B1: the half-maximal inhibitory concentration (IC50) was 17 nM in assay [1], 17000 nM in assay [2], 2 nM in assay [3] and 28 nM in assay [5]. For the same molecule, the allergenic potency (Prel) at 25% inhibition (relative to native Phl p 5b) in assay [1] worked out at 0.042; in assay [2], 0.022; in assay [3], 0.033; in assay [4] it was 3.4e-05; in assay [5], 0.039. The allergenic potency (Prel) at 50% inhibition (relative to native Phl p 5b) stood at 0.0035 in assay [1]; 0.0004 in assay [2]; 0.001 in assay [3]; 1e-10 in assay [4]; 0.0015 in assay [5]. The inhibition value (inhibitor concentration at 25% inhibition) in assay [1] was 1.2e-08 mol/L; in assay [2], 2.3e-08 mol/L; in assay [3] it was 6.5e-09 mol/L; in assay [4] it was 1.5e-05 mol/L; in assay [5], 8.6e-09 mol/L. In addition, the concentration required to bring about a 30% histamine release from basophils, against wild type rPh1 p 5b in assay [6] came out at 20 fold higher.

B2: rPhl p 5b deletion mutant DM2 (deletion F51-G178, D49L, K50A) (protein)
chain: ADAGYAPATPAAAGAAAGKATTEEQKLIEDINVGFKAAVAAAASVPAALAGAYDTYKCIPSLEAAVKQAYAATVAAAPQVKYAVFEAALTKAITAMSEVQKVSQPATGAATVAAGAATTAAGAASGAATVAAGGYKV
In assay [3], B2 displayed an allergenic potency (Prel) at 25% inhibition (relative to native Phl p 5b) of 2.9e-12. The molecule also gave a concentration required to bring about a 30% histamine release from basophils, against wild type rPh1 p 5b in assay [6] of 500 fold higher.

B3: natural Phl p 5b, purified by affinity chromatography (protein)
chain: ADAGYAPATPAAAGAAAGKATTEEQKLIEDINVGFKAAVAAAASVPAADKFKTFEAAFTSSSKAAAAKAPGLVPKLDAAYSVAYKAAVGATPEAKFDSFVASLTEALRVIAGALEVHAVKPVTEEPGMAKIPAGELQIIDKIDAAFKVAATAAATAPADDKFTVFEAAFNKAIKESTGGAYDTYKCIPSLEAAVKQAYAATVAAAPQVKYAVFEAALTKAITAMSEVQKVSQPATGAATVAAGAATTAAGAASGAATVAAGGYKV
For the molecule B3, the IC50 in assay [1] worked out at 5.9 nM; in assay [2], 6.1 nM; in assay [3], 2.6 nM; in assay [4] it was 6.8 nM; in assay [5], 4.2 nM. Besides, the allergenic potency (Prel) at 25% inhibition (relative to native Phl p 5b) in assay [1], in assay [2], in assay [3], in assay [4] and in assay [5] was 1 throughout. Besides, the allergenic potency (Prel) at 50% inhibition (relative to native Phl p 5b) in assay [1], in assay [2], in assay [3], in assay [4] and in assay [5] was 1 each time. Further, the inhibition value (inhibitor concentration at 25% inhibition) in assay [1] is 5.1e-10 mol/L; in assay [2], 5.1e-10 mol/L; in assay [3], 2.2e-10 mol/L; in assay [4] it was 5.2e-10 mol/L; in assay [5], 3.3e-10 mol/L.

B4: recombinant Phl p 5b (wild type) (protein)
chain: ADAGYAPATPAAAGAAAGKATTEEQKLIEDINVGFKAAVAAAASVPAADKFKTFEAAFTSSSKAAAAKAPGLVPKLDAAYSVAYKAAVGATPEAKFDSFVASLTEALRVIAGALEVHAVKPVTEEPGMAKIPAGELQIIDKIDAAFKVAATAAATAPADDKFTVFEAAFNKAIKESTGGAYDTYKCIPSLEAAVKQAYAATVAAAPQVKYAVFEAALTKAITAMSEVQKVSQPATGAATVAAGAATTAAGAASGAATVAAGGYKV
As for B4, the IC50 in assay [1] was 14 nM; in assay [2], 1400 nM; in assay [3], 4.7 nM; in assay [4], 73 nM; in assay [5] it was 5 nM. Further, the allergenic potency (Prel) at 25% inhibition (relative to native Phl p 5b) in assay [1] turned out to be 0.903; in assay [2], 1.7; in assay [3] it was 1.04; in assay [4], 0.597; in assay [5], 1.71. Moreover, the allergenic potency (Prel) at 50% inhibition (relative to native Phl p 5b) was 0.419 in assay [1]; 0.44 in assay [2]; 0.545 in assay [3]; 0.093 in assay [4]; 0.841 in assay [5]. Further, the inhibition value (inhibitor concentration at 25% inhibition) in assay [1] came to 5.6e-10 mol/L; in assay [2], 3e-10 mol/L; in assay [3], 2.1e-10 mol/L; in assay [4], 8.7e-10 mol/L; in assay [5], 2e-10 mol/L.
